Here are results for 1 molecule from article PMC6877644, “JASPer controls interphase histone H3S10 phosphorylation by chromosomal kinase JIL-1 in Drosophila”.

One data set has as its target T1, JASPer (Drosophila melanogaster, UniProt Q9VAA9 1-475).
T1 sequence: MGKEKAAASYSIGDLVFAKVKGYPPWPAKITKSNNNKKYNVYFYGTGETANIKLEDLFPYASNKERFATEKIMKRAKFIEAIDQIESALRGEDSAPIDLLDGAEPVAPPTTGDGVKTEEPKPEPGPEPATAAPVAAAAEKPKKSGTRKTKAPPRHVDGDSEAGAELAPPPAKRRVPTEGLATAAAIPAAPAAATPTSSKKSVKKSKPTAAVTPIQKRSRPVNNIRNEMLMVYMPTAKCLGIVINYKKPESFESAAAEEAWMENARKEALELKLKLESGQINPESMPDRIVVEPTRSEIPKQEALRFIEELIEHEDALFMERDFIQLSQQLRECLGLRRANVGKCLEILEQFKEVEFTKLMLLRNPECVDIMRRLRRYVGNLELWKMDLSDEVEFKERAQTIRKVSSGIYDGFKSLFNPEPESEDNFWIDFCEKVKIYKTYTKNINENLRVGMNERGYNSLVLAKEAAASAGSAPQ
In words: EMSA; 70 nM DNA; 9-fold molar excess of JASPer shifts all DNA; at least three retarded bands; DNA EMSA: 50 mM HEPES pH 7.6, 50 mM NaCl, 10% glycerol, 2 mM MgCl2, 10% BSA, RT 10 min; RNA EMSA: 25 mM HEPES pH 7.6, 100 mM KCl, 3 mM MgCl2, 1 mM DTT, 5% glycerol, 100 ug/mL yeast tRNA, 20 C 15 min; nucleosome pull-down: 20 mM Tris/Cl pH 7.5, 50 mM NaCl, 5 mM EDTA, 0.1% Tween 20, 4 C 4 h. As to conditions: protein: recombinant; tags: C-terminal FLAG; label: Cy5; blunt. In general terms: In EMSA bound probe runs differently from free probe, usually more slowly.

The next data set has as its target T2, JIL-1 (Drosophila melanogaster, UniProt Q9V3I5 1-1207).
T2 sequence: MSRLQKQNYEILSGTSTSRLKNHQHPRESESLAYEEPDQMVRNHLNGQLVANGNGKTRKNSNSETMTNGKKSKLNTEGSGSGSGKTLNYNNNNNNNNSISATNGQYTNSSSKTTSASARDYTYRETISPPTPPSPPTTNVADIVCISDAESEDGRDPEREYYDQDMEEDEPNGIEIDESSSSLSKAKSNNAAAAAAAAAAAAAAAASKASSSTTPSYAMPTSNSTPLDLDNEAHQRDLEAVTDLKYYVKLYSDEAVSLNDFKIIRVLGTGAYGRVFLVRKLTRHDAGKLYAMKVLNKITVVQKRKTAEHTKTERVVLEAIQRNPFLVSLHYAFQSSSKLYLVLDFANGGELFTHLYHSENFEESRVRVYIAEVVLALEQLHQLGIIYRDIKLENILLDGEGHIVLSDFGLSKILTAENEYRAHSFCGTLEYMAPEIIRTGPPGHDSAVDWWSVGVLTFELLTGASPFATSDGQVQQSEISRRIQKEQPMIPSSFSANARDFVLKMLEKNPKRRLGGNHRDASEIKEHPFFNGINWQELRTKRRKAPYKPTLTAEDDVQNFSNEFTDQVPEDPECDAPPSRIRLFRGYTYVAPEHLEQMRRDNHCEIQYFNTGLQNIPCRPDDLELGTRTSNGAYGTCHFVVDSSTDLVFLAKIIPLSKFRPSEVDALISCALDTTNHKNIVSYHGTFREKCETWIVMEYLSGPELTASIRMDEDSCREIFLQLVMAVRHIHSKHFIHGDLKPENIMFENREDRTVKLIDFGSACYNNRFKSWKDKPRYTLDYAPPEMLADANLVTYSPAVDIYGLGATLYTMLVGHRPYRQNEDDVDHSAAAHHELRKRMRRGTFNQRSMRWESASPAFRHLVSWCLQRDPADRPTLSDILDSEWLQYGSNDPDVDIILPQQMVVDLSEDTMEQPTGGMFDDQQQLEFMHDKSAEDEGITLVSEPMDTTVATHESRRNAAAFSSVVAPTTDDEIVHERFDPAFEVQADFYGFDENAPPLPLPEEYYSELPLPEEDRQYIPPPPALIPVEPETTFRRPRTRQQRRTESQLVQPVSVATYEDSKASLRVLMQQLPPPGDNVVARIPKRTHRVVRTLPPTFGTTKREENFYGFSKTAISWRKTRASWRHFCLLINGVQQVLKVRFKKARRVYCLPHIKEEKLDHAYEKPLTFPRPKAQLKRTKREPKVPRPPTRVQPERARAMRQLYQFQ
The experiment in a line: EMSA; 70 nM DNA; DNA EMSA: 50 mM HEPES pH 7.6, 50 mM NaCl, 10% glycerol, 2 mM MgCl2, 10% BSA, RT 10 min; RNA EMSA: 25 mM HEPES pH 7.6, 100 mM KCl, 3 mM MgCl2, 1 mM DTT, 5% glycerol, 100 ug/mL yeast tRNA, 20 C 15 min; nucleosome pull-down: 20 mM Tris/Cl pH 7.5, 50 mM NaCl, 5 mM EDTA, 0.1% Tween 20, 4 C 4 h. As to conditions: protein: recombinant; tags: N-terminal FLAG; label: Cy5; blunt.

B1: 40 bp dsDNA (end of 601 positioning sequence) (dsDNA)
DNA 1: CCTGGAGAATCCCGGTGCCGAGGCCGCTCAATTGGTCGTA
DNA 2: TACGACCAATTGAGCGGCCTCGGCACCGGGATTCTCCAGG
B1: the binding result with JASPer is on record as “binds”; in the data set with JIL-1 it was “no binding”.
